Earlier results, collected in US6303637A, “Heterocyclic potassium channel inhibitors” (Merck & Co., Inc., priority 1999, dated 2001).

Molecular target: T1, Kv 1.3 channels (Homo sapiens, UniProt P22001)
T1 construct: expressed in transfected cells; host or cells: CHO cells
Settings: margatoxin used at saturating concentration to establish the efflux window; read-out: IC50 (blocker of Kv 1.3 channels)

T1 sequence (P22001 whole entry): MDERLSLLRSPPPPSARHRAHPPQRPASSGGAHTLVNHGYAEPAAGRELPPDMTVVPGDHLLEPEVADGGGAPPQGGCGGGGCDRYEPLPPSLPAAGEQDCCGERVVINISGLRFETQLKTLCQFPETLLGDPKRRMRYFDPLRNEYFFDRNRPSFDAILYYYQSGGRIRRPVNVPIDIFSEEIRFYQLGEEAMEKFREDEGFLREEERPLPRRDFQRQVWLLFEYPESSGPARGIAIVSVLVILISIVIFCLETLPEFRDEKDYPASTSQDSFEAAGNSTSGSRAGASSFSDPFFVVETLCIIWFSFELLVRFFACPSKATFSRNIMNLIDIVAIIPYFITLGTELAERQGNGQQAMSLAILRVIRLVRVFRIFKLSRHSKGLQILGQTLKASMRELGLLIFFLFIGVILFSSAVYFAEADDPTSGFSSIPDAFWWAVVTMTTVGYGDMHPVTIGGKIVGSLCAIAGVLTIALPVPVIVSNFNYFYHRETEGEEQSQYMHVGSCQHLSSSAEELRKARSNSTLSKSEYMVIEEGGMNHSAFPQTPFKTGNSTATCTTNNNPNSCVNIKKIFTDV

For “margatoxin (TIINVKCTSPKQCLPPCKAQFGQSAGAKCMNGKCKCYPH; UniProt P40755 1-39, looked up)”, the IC50 is listed as 0.1 nM.
